These results are taken from PMC2978336.

For one data set, the target named is T1, DnaD-Cd215 (Bacillus subtilis, UniProt P39787 129-215).
T1 sequence: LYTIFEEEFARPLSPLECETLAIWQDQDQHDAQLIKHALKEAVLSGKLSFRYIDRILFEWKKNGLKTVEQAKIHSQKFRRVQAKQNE
As to the kind of experiment: NMR.

Data set [1] has as its target T2, DnaD-Cd196 (Bacillus subtilis, UniProt P39787 129-196).
T2 sequence: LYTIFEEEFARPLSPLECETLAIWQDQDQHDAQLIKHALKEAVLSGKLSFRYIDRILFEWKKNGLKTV
As to the kind of experiment: NMR.

In a further data set the target is T3, DnaD-Cd206 (Bacillus subtilis, UniProt P39787 129-206).
T3 sequence: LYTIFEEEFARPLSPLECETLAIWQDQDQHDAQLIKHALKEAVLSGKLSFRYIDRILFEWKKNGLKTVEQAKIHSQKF
As to the kind of experiment: NMR.

In the next data set the target is T4, DnaD-Cd (DnaD-Cd232) (Bacillus subtilis, UniProt P39787 129-232).
T4 sequence: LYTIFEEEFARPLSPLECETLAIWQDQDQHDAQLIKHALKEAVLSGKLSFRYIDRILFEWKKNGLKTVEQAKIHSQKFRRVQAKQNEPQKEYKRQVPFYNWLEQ
As to the kind of experiment: NMR.

Data set [2] deals with T2, DnaD-Cd196. As to the kind of experiment: EMSA.

As to GTTATTGCTC (ssDNA) [10-mer ssDNA], the binding result is given as “binds” with DnaD-Cd215, “no binding” with DnaD-Cd196 [1], “no binding” with DnaD-Cd206 and “binds” in the data set with DnaD-Cd (DnaD-Cd232).

As for CTCAGTTTCCGCGCGATTGACCGGATT (ssDNA) [Y180AF ss probe], the binding result in the data set with DnaD-Cd196 [2] is given as “no binding”.
